Laboratory results taken from article PMC9834408 (Nature Communications, 2023).
Where no end group is shown, it is not given here. [ ]: non-standard residue; d: D form. FAM = FAM fluorescent label on the peptide N-terminus (the text does not expand the abbreviation); pS = N[C@@H](COP(=O)(O)O)C(=O)O

T1: RBM15 SPOC R834A (human, UniProt Q96T37 775-960, R834A)
T1 construct: SPOC domain of human RBM15, residues 775-960, with R834A; not shown: His6, N-terminal, cleaved
T1 sequence (looked up): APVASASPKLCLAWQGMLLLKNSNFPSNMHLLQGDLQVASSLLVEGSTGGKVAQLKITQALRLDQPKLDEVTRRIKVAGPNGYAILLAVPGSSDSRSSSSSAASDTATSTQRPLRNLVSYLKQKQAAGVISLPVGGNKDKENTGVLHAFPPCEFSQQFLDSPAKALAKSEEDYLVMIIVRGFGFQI


What was measured:
[1] = target: T2, SHARP SPOC (3496–3664 aa) (human, UniProt Q96T58 3496-3664); assay: fluorescence polarisation; fluorescence anisotropy; 90 nM labelled peptide (Atto-488 on CTD peptides, FAM on NCoR and FMR1 peptides) titrated with increasing concentrations of SPOC domain; 20 °C; 25 mM Tris-Cl pH 7.4, 25 mM NaCl, 1 mM DTT; three independent dilution series; conditions: both partners purified
T2 construct: SPOC domain of human SHARP (SMRT/HDAC1 associated repressor protein, also known as SPEN), residues 3496-3664; also called SPOC domain of SHARP; SPEN SPOC; not shown: His6, N-terminal, cleaved

RBM15 SPOC R834A = target: T1, RBM15 SPOC R834A; assay: as above; conditions: both partners purified

Row | Binder | Kd [1] [µM] | Kd (RBM15 SPOC R834A) [µM]
1 | {FAM}-REPAPLLSAQYETLSDSDD [unphosphorylated NCoR peptide] | 13.6 ± 1.3 | 
2 | MTNEEPLPKKVRL[pS]ETDFK (peptide, UniProt Q15007 1-19, looked up, first 19 N-terminal amino acids of WTAP, with the LSETD motif; also called WTAP pS14) [WTAP peptide (first 19 N-terminal amino acids) phosphorylated at S14] |  | 50.4 ± 1.1
3 | {Atto‑488}-YSPT[pS]PSYSPTSPS (also called 1×S5P CTD peptide; CTD pS5; source: lyophilized peptide, labeled with Atto-488 NHS ester, purified by reverse-phase HPLC) [1×S5P CTD diheptapeptide] | 23.8 ± 0.8 | 
4 | {FAM}-REPAPLLSAQYETL[pS]DSDD (also: phosphoserine at S2436) [NCoR peptide phosphorylated at S2436] | 1.75 ± 0.04 | 
